Target: T1, EphB4 CF2 protein (ECD version with deleted globular domain, 6xHis tagged) (human, UniProt P54760 16-537)
T1 construct: The entry is the precursor
T1 sequence: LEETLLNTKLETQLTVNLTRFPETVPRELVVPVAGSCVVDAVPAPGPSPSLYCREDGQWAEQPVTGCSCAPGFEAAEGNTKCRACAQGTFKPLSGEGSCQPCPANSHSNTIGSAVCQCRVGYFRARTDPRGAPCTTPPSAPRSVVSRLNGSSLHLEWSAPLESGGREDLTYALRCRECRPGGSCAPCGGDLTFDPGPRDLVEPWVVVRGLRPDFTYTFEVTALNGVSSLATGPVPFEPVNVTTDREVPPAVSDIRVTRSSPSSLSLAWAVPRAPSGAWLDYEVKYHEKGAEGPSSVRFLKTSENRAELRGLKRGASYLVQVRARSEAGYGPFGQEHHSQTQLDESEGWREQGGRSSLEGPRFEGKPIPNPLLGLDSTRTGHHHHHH
Test: Ephrin B2-AP binding to B4 proteins immobilized on Ni2+ resin or nitrocellulose membrane
Protocol: To confirm ability of the purified recombinant proteins to bind Ephrin B2, they were tested in an in vitro binding assay. As expected, GC, GCF1 and GCF2, but not CF2 are binding the cognate ligand Ephrin B2 as confirmed by interaction between Ephrin B2-alkaline phosphatase (Ephrin B2-AP) fusion protein with the B4 proteins immobilized on Ni²⁺ resin or on nitrocellulose membrane (FIG. 17).

- binding result: no binding
B1: B2EC-AP reagent (protein fusion of Ephrin B2 ectodomain with placental alkaline phosphatase) (ligand, UniProt P52799 28-229, looked up)
chain: IVLEPIYWNSSNSKFLPGQGLVLYPQIGDKLDIICPKVDSKTVGQYEYYKVYMVDKDQADRCTIKKENTPLLNCAKPDQDIKFTIKFQEFSPNLWGLEFQKNKDYYIISTSNGSLEGLDNQEGGVCQTRAMKILMKVGQDASSAGSTRNKDPTRRPELEAGTNGRSSTTSPFVKPNPGSSTDGNSAGHSGNNILGSEVALFA
notes: extracellular domain; also called B2-AP; Ephrin B2-AP; not shown: placental alkaline phosphatase

Reference: patent US20060204512A1 (VASGENE THERAPEUTICS, published 2006)
